Measurements as given in article PMC5026608.

Assays:
[1] = substrate: C[S+](CC[C@H](N)c1nn[nH]n1)C[C@H]1O[C@@H](n2cnc3c(N)ncnc32)[C@H](O)[C@@H]1O; experiment: methyltransferase assay, HPLC / A410; format: biochemical, Streptomyces peucetius; settings: saturating ClNP 1.5 mM, 100 mM Tris pH 8.0, 37 °C, methyl donor
purified protein = substrate: C[S+](CC[C@H](N)C(=O)O)C[C@H]1O[C@@H](n2cnc3c(N)ncnc32)[C@H](O)[C@@H]1O; experiment: purified protein; settings: saturating ClNP 1.5 mM, 100 mM Tris pH 8.0, 37 °C, methyl donor

B1: DnrK (Streptomyces peucetius) (protein)
chain: MTAEPTVAARPQQIDALRTLIRLGSLHTPMVVRTAATLRLVDHILAGARTVKALAARTDTRPEALLRLIRHLVAIGLLEEDAPGEFVPTEVGELLADDHPAAQRAWHDLTQAVARADISFTRLPDAIRTGRPTYESIYGKPFYEDLAGRPDLRASFDSLLACDQDVAFDAPAAAYDWTNVRHVLDVGGGKGGFAAAIARRAPHVSATVLEMAGTVDTARSYLKDEGLSDRVDVVEGDFFEPLPRKADAIILSFVLLNWPDHDAVRILTRCAEALEPGGRILIHERDDLHENSFNEQFTELDLRMLVFLGGALRTREKWDGLAASAGLVVEEVRQLPSPTIPYDLSLLVLAPAATGA
With B1 the Km [1] was 335 ± 40 µM, the kcat [1] was 0.000517 ± 1.67e-05 s⁻¹ and the Km (purified protein) was 138 ± 7 µM. The kcat (purified protein) was 0.000283 s⁻¹.
